Consider one molecule from publication PMC3342691 (Nature structural & molecular biology, 2011).

The target in the experiment is Xenopus tropicalis tubulin tyrosine ligase (residues 2–377) (Xenopus tropicalis). The experiment is described as follows: AUC.

What is called Kd is the constant that tells how readily two partners part at equilibrium.

Take VDSVEGEGEEEGEE [14-residue α–tubulin C-terminal peptide (VDSVEGEGEEEGEE)]: the Kd is about 144 µM.
